Tested on: H2B-S33
Assay: In vitro kinase assay (γ32P-ATP, SDS-PAGE, autoradiography, scintillation counting)
Format: biochemical, Drosophila
Conditions: for Turnover values for phosphorylation of H2B-S33: 3 μg enzyme
Method: Kinase reactions were programmed with 1 μg RAP74, 1 μg recombinant histone, 2 μg polynucleosomes, 2 μg histone octamers, or 300 ng histone peptide, and contained 400 ng endogenous TFIID or 250 ng recombinant TAF1 derivatives and 0.25 μCi γ^32P-ATP. Reactions were performed in 20 μl kinase buffer (25 mM Hepes (pH 7.6), 10% glycerol, and 400 mM NaCl) for 25 min at 25° C. Reaction products were analyzed by SDS-PAGE using 8%—(for recombinant proteins), 15%—(for histones), or 18% (for peptides) gels. After electrophoresis, gels were dried and exposed to X-ray film.
To quantify kinase reactions, reactions products were separated by SDS-PAGE and detected by coomassie blue staining. Radiolabeled H2B was detected by autoradiography, excised from the gel, and analyzed by scintillation counting.
To measure the kinase activity of TFIID, TAF1, CTK, and mutant CTK-derivatives, reaction products of in vitro kinase assays were separated by SDS-PAGE and stained with coomassie blue. Radiolabeled H2B, H2BT and controls were excised from the gel and incorporation of radioactivity was determined by scintillation counting. Turnover values for phosphorylation of H2B-S33 were determined by measuring incorporation of radiolabeled phosphate groups into H2B in the presence of 3 μg TAF1, TFIID, or CTK-derivatives and 3 μg H2B or 12 μg nucleosomes. The turnover values were: TFIID (nucleosomes: 3.3/sec; H2B: 2.6/sec); TAF1: (nucleosomes: 2.5/sec; H2B: 2.5/sec); CTK: (nucleosomes: 2.6/sec; H2B: 4.4/sec).

Substance | Turnover values for phosphorylation of H2B-S33 (substrate 3 μg H2B) [s⁻¹] | Turnover values for phosphorylation of H2B-S33 (substrate 12 μg nucleosomes) [s⁻¹] | H2B phosphorylation in vitro (qualitative) (autoradiography) | kinase activity, % of the activity determined for TFIID, TAF1 and CTK (radiolabeled H2B, scintillation counting)
TAF1: subunit of TFIID that has kinase activity; recombinant Flag-tagged Drosophila protein | 2.5 | 2.5 | – | –
TAF1ΔCTK: TAF1 truncated by stop codon behind amino acid 1728, deleting the CTK downstream of the DBD | – | – | does not phosphorylate H2B in vitro | less than 0.1%

Source: patent US20060115482A1, “Modifications of histone proteins as indicators of cell proliferation and differentiation” (The Regents of the University of California, priority 2004, published 2006)
